Measurements from patent US20260167699A1 (Chugai, published 2026).

molecular target: T1, FcγRIIIaV (human, UniProt P08637 17-208); assay: SPR (Biacore), antibody captured, FcγR as analyte, 1:1 Langmuir fit
T1 construct: extracellular domain
T1 sequence (P08637 other isoform, or with tags, fused parts or gaps): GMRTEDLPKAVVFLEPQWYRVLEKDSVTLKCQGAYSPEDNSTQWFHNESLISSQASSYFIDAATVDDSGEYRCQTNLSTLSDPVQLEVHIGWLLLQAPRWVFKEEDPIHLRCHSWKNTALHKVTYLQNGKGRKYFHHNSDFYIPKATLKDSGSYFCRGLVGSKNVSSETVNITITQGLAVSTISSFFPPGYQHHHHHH
Procedure: The antibody of interest was analyzed for its interaction with FcγR using a BiaCore™ T100, BiaCore™ A100, or BiaCore™ 4000 surface plasmon resonance system (GE Healthcare Japan Corp.). The running buffer used was HBS-EP+ (GE Healthcare Japan Corp.). The assay temperature was set to 25° C. The sensor chips used were: a chip prepared by immobilizing antigenic peptides onto Series S Sensor Chip CM5 (GE Healthcare Japan Corp.) by the amine coupling method; a chip prepared by immobilizing antigenic peptides biotinylated in advance onto Series S Sensor Chip SA (certified) (GE Healthcare Japan Corp.) through their interaction; a chip prepared by immobilizing protein L (ACTIGEN, BioVision, Inc.) onto Series S Sensor Chip CM5 (GE Healthcare Japan Corp.); and a chip prepared by immobilizing protein A/G (Thermo Fisher Scientific K.K.) onto Series S Sensor Chip CM5 (GE Healthcare Japan Corp.). The antibody of interest was captured onto any of these chips and allowed to interact with FcγR diluted with a running buffer. The antibody captured on the chip was washed off through the reaction of 10 mM glycine-HCl (pH 1.5) to regenerate the chip, which was repetitively used.

| Kd | Binder |
| --- | --- |
| 2.9 nM | HI076-L3-3 (antibody, human IgG1, kappa, heterodimerized anti-EREG antibody: altered H240-Hl076 chain (Gly/Ser peptide in loop) with H240-Kn125 and L73-k0; also called Hl076-L3-3) heavy 1: QDQLVQSGAEVKKPGASVKVSCKASGFNIKDTYIQWVRQAPGQGLEWMGRIDPLRKQTKYREKFEGRVTITADTSTNTAYMELSSLRSEDTAVYYCVRSGREFDYWGQGTLVTVSSASTKGPSVFPLAPSSKSTSGGTAALGCLVKDYFPEPVTVSWNSGALTSGVHTFPAVLQSSGLYSLSSVVTVPSSSLGTQTYICNVNHKPSNTKVDKKVEPKSCDKTHTCPPCPAPELLGGPSVFLFPPKPKDTLMISRTPEVTCVVVDVSHEEPEVKFNWYVDGVEVHNAKTKPREEQYNSTGGSYRVVSVLTVLHQDWLNGKEYKCKVSNDALPMPIEETISKAKGQPREPQVYTLPPSRCELTKNQVSLSCAVKGFYPSDIAVEWESNGQPENNYKTTPPVLDSDGSFFLVSKLTVDKSRWQQGNVFSCSVMHEALHNHYTQKSLSLSP heavy 2: QDQLVQSGAEVKKPGASVKVSCKASGFNIKDTYIQWVRQAPGQGLEWMGRIDPLRKQTKYREKFEGRVTITADTSTNTAYMELSSLRSEDTAVYYCVRSGREFDYWGQGTLVTVSSASTKGPSVFPLAPSSKSTSGGTAALGCLVKDYFPEPVTVSWNSGALTSGVHTFPAVLQSSGLYSLSSVVTVPSSSLGTQTYICNVNHKPSNTKVDKKVEPKSCDKTHTCPPCPAPEYQWGPMVFLFPPKPKDTLMISRTPEVTCVVVDVSDEEPEVKFNWYVDGVEVHNAKTKPREEQYNATYRVVSVLTVLHQDWLNGKEYKCKVSNKALPAPIEKTISKAKGQPREPQVCTLPPSRDELTKNQVSLWCLVKGFYPSDIAVEWESNGQPENNYKTTPPVLDSDGSFFLYSKLTVDKSRWQQGNVFSCSVMHEALHNHYTQKSLSLSP light: DIQMTQSPSSLSASVGDRVTITCRASQDIHKYIAWYQQKPGQAPRLLIQYTSTLQPGVPSRFSGSGSGTDYTFTISSLQPEDIATYYCLQYEQLRTFGGGTKVEIKRTVAAPSVFIFPPSDEQLKSGTASVVCLLNNFYPREAKVQWKVDNALQSGNSQESVTEQDSKDSTYSLSSTLTLSKADYEKHKVYACEVTHQGLSSPVTKSFNRGEC |
| 2 nM | Kn125-L4-GS7 (antibody, human IgG1, kappa, heterodimerized anti-EREG antibody: altered H240-Kn125 chain (Gly/Ser peptide in loop) with H240-Hl076 and L73-k0) heavy 1: QDQLVQSGAEVKKPGASVKVSCKASGFNIKDTYIQWVRQAPGQGLEWMGRIDPLRKQTKYREKFEGRVTITADTSTNTAYMELSSLRSEDTAVYYCVRSGREFDYWGQGTLVTVSSASTKGPSVFPLAPSSKSTSGGTAALGCLVKDYFPEPVTVSWNSGALTSGVHTFPAVLQSSGLYSLSSVVTVPSSSLGTQTYICNVNHKPSNTKVDKKVEPKSCDKTHTCPPCPAPELLGGPSVFLFPPKPKDTLMISRTPEVTCVVVDVSHEEPEVKFNWYVDGVEVHNAKTKPREEQYNSTYRVVSVLTVLHQDWLNGKEYKCKVSNDALPMPIEETISKAKGQPREPQVYTLPPSRCELTKNQVSLSCAVKGFYPSDIAVEWESNGQPENNYKTTPPVLDSDGSFFLVSKLTVDKSRWQQGNVFSCSVMHEALHNHYTQKSLSLSP heavy 2: QDQLVQSGAEVKKPGASVKVSCKASGFNIKDTYIQWVRQAPGQGLEWMGRIDPLRKQTKYREKFEGRVTITADTSTNTAYMELSSLRSEDTAVYYCVRSGREFDYWGQGTLVTVSSASTKGPSVFPLAPSSKSTSGGTAALGCLVKDYFPEPVTVSWNSGALTSGVHTFPAVLQSSGLYSLSSVVTVPSSSLGTQTYICNVNHKPSNTKVDKKVEPKSCDKTHTCPPCPAPEYQWGPMVFLFPPKPKDTLMISRTPEVTCVVVDVSDEEPEVKFNWYVDGVEVHNAKTKPREEQYNATYRVVSVLTVLHQDWLNGKEYKCKVSNGGSGGGSPIEKTISKAKGQPREPQVCTLPPSRDELTKNQVSLWCLVKGFYPSDIAVEWESNGQPENNYKTTPPVLDSDGSFFLYSKLTVDKSRWQQGNVFSCSVMHEALHNHYTQKSLSLSP light: DIQMTQSPSSLSASVGDRVTITCRASQDIHKYIAWYQQKPGQAPRLLIQYTSTLQPGVPSRFSGSGSGTDYTFTISSLQPEDIATYYCLQYEQLRTFGGGTKVEIKRTVAAPSVFIFPPSDEQLKSGTASVVCLLNNFYPREAKVQWKVDNALQSGNSQESVTEQDSKDSTYSLSSTLTLSKADYEKHKVYACEVTHQGLSSPVTKSFNRGEC |
| 7.2 nM | HI076-L3-6 (antibody, human IgG1, kappa, heterodimerized anti-EREG antibody: altered H240-Hl076 chain (Gly/Ser peptide in loop) with H240-Kn125 and L73-k0; also called Hl076-L3-6) heavy 1: QDQLVQSGAEVKKPGASVKVSCKASGFNIKDTYIQWVRQAPGQGLEWMGRIDPLRKQTKYREKFEGRVTITADTSTNTAYMELSSLRSEDTAVYYCVRSGREFDYWGQGTLVTVSSASTKGPSVFPLAPSSKSTSGGTAALGCLVKDYFPEPVTVSWNSGALTSGVHTFPAVLQSSGLYSLSSVVTVPSSSLGTQTYICNVNHKPSNTKVDKKVEPKSCDKTHTCPPCPAPELLGGPSVFLFPPKPKDTLMISRTPEVTCVVVDVSHEEPEVKFNWYVDGVEVHNAKTKPREEQYNSTGGSGGSYRVVSVLTVLHQDWLNGKEYKCKVSNDALPMPIEETISKAKGQPREPQVYTLPPSRCELTKNQVSLSCAVKGFYPSDIAVEWESNGQPENNYKTTPPVLDSDGSFFLVSKLTVDKSRWQQGNVFSCSVMHEALHNHYTQKSLSLSP heavy 2: QDQLVQSGAEVKKPGASVKVSCKASGFNIKDTYIQWVRQAPGQGLEWMGRIDPLRKQTKYREKFEGRVTITADTSTNTAYMELSSLRSEDTAVYYCVRSGREFDYWGQGTLVTVSSASTKGPSVFPLAPSSKSTSGGTAALGCLVKDYFPEPVTVSWNSGALTSGVHTFPAVLQSSGLYSLSSVVTVPSSSLGTQTYICNVNHKPSNTKVDKKVEPKSCDKTHTCPPCPAPEYQWGPMVFLFPPKPKDTLMISRTPEVTCVVVDVSDEEPEVKFNWYVDGVEVHNAKTKPREEQYNATYRVVSVLTVLHQDWLNGKEYKCKVSNKALPAPIEKTISKAKGQPREPQVCTLPPSRDELTKNQVSLWCLVKGFYPSDIAVEWESNGQPENNYKTTPPVLDSDGSFFLYSKLTVDKSRWQQGNVFSCSVMHEALHNHYTQKSLSLSP light: DIQMTQSPSSLSASVGDRVTITCRASQDIHKYIAWYQQKPGQAPRLLIQYTSTLQPGVPSRFSGSGSGTDYTFTISSLQPEDIATYYCLQYEQLRTFGGGTKVEIKRTVAAPSVFIFPPSDEQLKSGTASVVCLLNNFYPREAKVQWKVDNALQSGNSQESVTEQDSKDSTYSLSSTLTLSKADYEKHKVYACEVTHQGLSSPVTKSFNRGEC |
| 7.3 nM | HI076-L3-9 (antibody, human IgG1, kappa, heterodimerized anti-EREG antibody: altered H240-Hl076 chain (Gly/Ser peptide in loop) with H240-Kn125 and L73-k0; also called Hl076-L3-9) heavy 1: QDQLVQSGAEVKKPGASVKVSCKASGFNIKDTYIQWVRQAPGQGLEWMGRIDPLRKQTKYREKFEGRVTITADTSTNTAYMELSSLRSEDTAVYYCVRSGREFDYWGQGTLVTVSSASTKGPSVFPLAPSSKSTSGGTAALGCLVKDYFPEPVTVSWNSGALTSGVHTFPAVLQSSGLYSLSSVVTVPSSSLGTQTYICNVNHKPSNTKVDKKVEPKSCDKTHTCPPCPAPELLGGPSVFLFPPKPKDTLMISRTPEVTCVVVDVSHEEPEVKFNWYVDGVEVHNAKTKPREEQYNSTGGSGGSGGSYRVVSVLTVLHQDWLNGKEYKCKVSNDALPMPIEETISKAKGQPREPQVYTLPPSRCELTKNQVSLSCAVKGFYPSDIAVEWESNGQPENNYKTTPPVLDSDGSFFLVSKLTVDKSRWQQGNVFSCSVMHEALHNHYTQKSLSLSP heavy 2: QDQLVQSGAEVKKPGASVKVSCKASGFNIKDTYIQWVRQAPGQGLEWMGRIDPLRKQTKYREKFEGRVTITADTSTNTAYMELSSLRSEDTAVYYCVRSGREFDYWGQGTLVTVSSASTKGPSVFPLAPSSKSTSGGTAALGCLVKDYFPEPVTVSWNSGALTSGVHTFPAVLQSSGLYSLSSVVTVPSSSLGTQTYICNVNHKPSNTKVDKKVEPKSCDKTHTCPPCPAPEYQWGPMVFLFPPKPKDTLMISRTPEVTCVVVDVSDEEPEVKFNWYVDGVEVHNAKTKPREEQYNATYRVVSVLTVLHQDWLNGKEYKCKVSNKALPAPIEKTISKAKGQPREPQVCTLPPSRDELTKNQVSLWCLVKGFYPSDIAVEWESNGQPENNYKTTPPVLDSDGSFFLYSKLTVDKSRWQQGNVFSCSVMHEALHNHYTQKSLSLSP light: DIQMTQSPSSLSASVGDRVTITCRASQDIHKYIAWYQQKPGQAPRLLIQYTSTLQPGVPSRFSGSGSGTDYTFTISSLQPEDIATYYCLQYEQLRTFGGGTKVEIKRTVAAPSVFIFPPSDEQLKSGTASVVCLLNNFYPREAKVQWKVDNALQSGNSQESVTEQDSKDSTYSLSSTLTLSKADYEKHKVYACEVTHQGLSSPVTKSFNRGEC |
